From PMC10397247

Key:
4H465-AA = molecular target: T1, 4H465-AA; assay: two-hybrid library CCmax;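 further: natural log of median RNA to DNA barcode read ratio; higher means stronger binding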
T1 chain: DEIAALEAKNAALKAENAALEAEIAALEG

4H486-AA = molecular target: T2, 4H486-AA; assay: two-hybrid library CCmax; conditions: mean of both orientations;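 further: natural log of median RNA to DNA barcode read ratio; higher means stronger binding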
T2 chain: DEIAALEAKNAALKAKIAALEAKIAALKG

4H535-AA = molecular target: T3, 4H535-AA; assay: two-hybrid library CCmax; conditions: mean of both orientations;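 further: natural log of median RNA to DNA barcode read ratio; higher means stronger binding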
T3 chain: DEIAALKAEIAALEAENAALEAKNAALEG

4H58-AA = molecular target: T4, 4H58-AA; assay: two-hybrid library CCmax; conditions: mean of both orientations;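 further: natural log of median RNA to DNA barcode read ratio; higher means stronger binding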
T4 chain: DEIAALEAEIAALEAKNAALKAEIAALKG

4H895-AA = molecular target: T5, 4H895-AA; assay: two-hybrid library CCmax; conditions: mean of both orientations
T5 chain: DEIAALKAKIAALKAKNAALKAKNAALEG

4H_APH = molecular target: T6, 4H_APH; assay: two-hybrid library CCmax
T6 chain: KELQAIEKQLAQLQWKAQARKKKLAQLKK

4H_BCR = molecular target: T7, 4H_BCR; assay: two-hybrid library CCmax; conditions: mean of both orientations
T7 chain: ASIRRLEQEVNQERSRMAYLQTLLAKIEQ

4H_GCN4 = assay: two-hybrid library CCmax
GCN2_T = assay: two-hybrid library CCmax
P2-AA-1HGe-A = molecular target: T8, P2-AA-1HGe-A; assay: two-hybrid library CCmax; conditions: mean of both orientations
T8 chain: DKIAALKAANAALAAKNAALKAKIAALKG

P2-AA-1HGe-D = molecular target: T9, P2-AA-1HGe-D; assay: two-hybrid library CCmax; conditions: mean of both orientations
T9 chain: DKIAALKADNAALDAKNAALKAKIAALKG

P2-AA-1HGe-H = molecular target: T10, P2-AA-1HGe-H; assay: two-hybrid library CCmax; conditions: mean of both orientations
T10 chain: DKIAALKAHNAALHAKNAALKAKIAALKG

P2-AA-1HGe-M = molecular target: T11, P2-AA-1HGe-M; assay: two-hybrid library CCmax; conditions: mean of both orientations
T11 chain: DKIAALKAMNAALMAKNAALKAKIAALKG

P2-AA-1HGe-Q = molecular target: T12, P2-AA-1HGe-Q; assay: two-hybrid library CCmax; conditions: mean of both orientations
T12 chain: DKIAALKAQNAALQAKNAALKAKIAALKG

P2-AA-1HGe-T = molecular target: T13, P2-AA-1HGe-T; assay: two-hybrid library CCmax; conditions: mean of both orientations
T13 chain: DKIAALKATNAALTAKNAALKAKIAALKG

P2-AA = molecular target: T14, P2-AA; assay: two-hybrid library CCmax; conditions: mean of both orientations
T14 chain: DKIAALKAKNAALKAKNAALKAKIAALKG

4H1072-bN = molecular target: T15, 4H1072-bN; assay: two-hybrid library CCNG1
T15 chain: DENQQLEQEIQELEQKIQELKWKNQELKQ

4H1193-bN = molecular target: T16, 4H1193-bN; assay: two-hybrid library CCNG1
T16 chain: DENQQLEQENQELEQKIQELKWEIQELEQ

4H1387-bN = molecular target: T17, 4H1387-bN; assay: two-hybrid library CCNG1
T17 chain: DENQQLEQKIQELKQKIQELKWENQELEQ

4H1406-bN = molecular target: T18, 4H1406-bN; assay: two-hybrid library CCNG1
T18 chain: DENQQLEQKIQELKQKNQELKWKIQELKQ

4H2568-bN = molecular target: T19, 4H2568-bN; assay: two-hybrid library CCNG1
T19 chain: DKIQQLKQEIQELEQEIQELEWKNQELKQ

4H2619-bN = molecular target: T20, 4H2619-bN; assay: two-hybrid library CCNG1
T20 chain: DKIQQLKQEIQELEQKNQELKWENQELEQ

4H2745-bN = molecular target: T21, 4H2745-bN; assay: two-hybrid library CCNG1
T21 chain: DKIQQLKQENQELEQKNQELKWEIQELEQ

4H344-bN = molecular target: T22, 4H344-bN; assay: two-hybrid library CCNG1
T22 chain: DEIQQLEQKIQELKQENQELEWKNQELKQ

4H3592-bN = molecular target: T23, 4H3592-bN; assay: two-hybrid library CCNG1
T23 chain: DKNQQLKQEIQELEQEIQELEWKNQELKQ

4H3601-bN = molecular target: T24, 4H3601-bN; assay: two-hybrid library CCNG1
T24 chain: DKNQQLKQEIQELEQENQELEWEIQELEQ

4H363-bN = molecular target: T25, 4H363-bN; assay: two-hybrid library CCNG1
T25 chain: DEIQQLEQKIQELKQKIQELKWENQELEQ

4H3907-bN = molecular target: T26, 4H3907-bN; assay: two-hybrid library CCNG1
T26 chain: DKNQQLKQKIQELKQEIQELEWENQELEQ

4H3961-bN = molecular target: T27, 4H3961-bN; assay: two-hybrid library CCNG1
T27 chain: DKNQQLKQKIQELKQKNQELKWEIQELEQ

4H4038-bN = molecular target: T28, 4H4038-bN; assay: two-hybrid library CCNG1
T28 chain: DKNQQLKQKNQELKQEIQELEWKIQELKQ

4H470-bN = molecular target: T29, 4H470-bN; assay: two-hybrid library CCNG1
T29 chain: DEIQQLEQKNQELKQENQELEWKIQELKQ

Sequence of 4H_GCN4 (chain, as listed by the source): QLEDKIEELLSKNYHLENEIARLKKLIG

**Q.** For DEIAALEAKNAALKAENAALEAEIAALEG [4H465-AA], which interaction score (4H465-AA) is on record?
**A.** -1.82

**Q.** And the interaction score (4H486-AA)?
**A.** -1.47

**Q.** And the interaction score (4H535-AA)?
**A.** -1.58

**Q.** And the interaction score (4H58-AA)?
**A.** 0.877

**Q.** What about the interaction score (4H895-AA) of the same binder?
**A.** -1.13

**Q.** And the interaction score (4H_APH)?
**A.** -1.84

**Q.** What about the interaction score (4H_BCR) of the same binder?
**A.** -1.2

**Q.** And the interaction score (4H_GCN4)?
**A.** -2.34

**Q.** And the interaction score (GCN2_T)?
**A.** -1.97

**Q.** What about the interaction score (P2-AA-1HGe-A) of the same binder?
**A.** 1.85

**Q.** And the interaction score (P2-AA-1HGe-D)?
**A.** 1.36

**Q.** And the interaction score (P2-AA-1HGe-H)?
**A.** 1.53

**Q.** And the interaction score (P2-AA-1HGe-M)?
**A.** 1.47

**Q.** And the interaction score (P2-AA-1HGe-Q)?
**A.** 1.82

**Q.** And the interaction score (P2-AA-1HGe-T)?
**A.** 2.11

**Q.** And the interaction score (P2-AA)?
**A.** 1.61

**Q.** With DEIAALEAHNAALHAENAALEAEIAALEG [P1-AA-1HGe-H] as the binder, how does the interaction score (P2-AA-1HGe-A) read?
**A.** 2.34

**Q.** And the interaction score (P2-AA-1HGe-D)?
**A.** 1.6

**Q.** And the interaction score (P2-AA-1HGe-H)?
**A.** 1.57

**Q.** And the interaction score (P2-AA-1HGe-M)?
**A.** 1.8

**Q.** And the interaction score (P2-AA-1HGe-Q)?
**A.** 2.16

**Q.** And the interaction score (P2-AA-1HGe-T)?
**A.** 1.71

**Q.** And the interaction score (P2-AA)?
**A.** 1.8

**Q.** How did the interaction score (4H1072-bN) turn out when DENQQLEQEIQELEQKIQELKWKNQELKQ [4H1072-bN] was run?
**A.** 0.692

**Q.** And the interaction score (4H1193-bN)?
**A.** -0.235

**Q.** What about the interaction score (4H1387-bN) of the same binder?
**A.** 0.922

**Q.** What about the interaction score (4H1406-bN) of the same binder?
**A.** -0.693

**Q.** What about the interaction score (4H2568-bN) of the same binder?
**A.** -0.182

**Q.** What about the interaction score (4H2619-bN) of the same binder?
**A.** 0.775

**Q.** What about the interaction score (4H2745-bN) of the same binder?
**A.** -0.0701

**Q.** What about the interaction score (4H344-bN) of the same binder?
**A.** -0.983

**Q.** What about the interaction score (4H3592-bN) of the same binder?
**A.** 0.235

**Q.** What about the interaction score (4H3601-bN) of the same binder?
**A.** -0.0449

**Q.** And the interaction score (4H363-bN)?
**A.** 1.58

**Q.** And the interaction score (4H3907-bN)?
**A.** 1.91

**Q.** And the interaction score (4H3961-bN)?
**A.** 0.231

**Q.** What about the interaction score (4H4038-bN) of the same binder?
**A.** 0.389

**Q.** And the interaction score (4H470-bN)?
**A.** 0.0488
